Among the data in publication PMC4612324 are EC50 values, retold here.

This experiment has as its target Aβ 1-40 peptide (UniProt P05067). Kind of experiment: ELISA; Aβ1-40 peptide coated on Maxisorp plates (0.1 µg/ml, bicarbonate buffer pH 9.6); antibodies serially diluted in PBS/1 % BSA, 1 h at room temperature; detected with biotinylated anti-mouse IgG and streptavidin poly-HRP; relative affinity. A general note: An ELISA detects its analyte on a solid surface through an enzyme-linked reagent.

For orientation: EC50 means the concentration that produces a half-maximal response. In turn, “chGantenerumab (mouse/human chimeric version of Gantenerumab with mouse IgG2a constant region) (antibody)” displayed an EC50 of 0.34 pM.
